Experimental data as given in patent US20240366624.

Target: wild type STIM1, recombinant, Q13586
Sequence (Q13586 23-213): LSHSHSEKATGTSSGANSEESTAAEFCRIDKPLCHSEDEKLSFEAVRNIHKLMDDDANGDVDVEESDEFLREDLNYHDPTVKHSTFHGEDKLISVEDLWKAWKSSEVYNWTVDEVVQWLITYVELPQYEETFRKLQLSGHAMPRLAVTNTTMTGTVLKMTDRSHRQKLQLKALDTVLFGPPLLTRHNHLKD

| Protein | N-ethylmaleimide labeling on the Cys49 residue in STIM1 (mass spectrometry) |
| --- | --- |
| recombinant human ERO1α (endoplasmic reticulum oxidoreductase 1α), wild type (protein) EEQPPETAAQRCFCQVSGYLDDCTCDVETIDRFNNYRLFPRLQKLLESDYFRYYKVNLKRPCPFWNDISQCGRRDCAVKPCQSDEVPDGIKSASYKYSEEANNLIEECEQAERLGAVDESLSEETQKAVLQWTKHDDSSDNFCEADDIQSPEAEYVDLLLNPERYTGYKGPDAWKIWNVIYEENCFKPQTIKRPLNPLASGQGTSEENTFYSWLEGLCVEKRAFYRLISGLHASINVHLSARYLLQETWLEKKWGHNITEFQQRFDGILTEGEGPRRLKNLYFLYLIELRALSKVLPFFERPDFQLFTGNKIQDEENKMLLLEILHEIKSFPLHFDENSFFAGDKKEAHKLKEDFRLHFRNISRIMDCVGCFKCRLWGKLQTQGLGTALKILFSEKLIANMPESGPSYEFHLTRQEIVSLFNAFGRISTSVKELENFRNLLQNIH | wtERO1α, but not mERO1α, decreased N-ethylmaleimide labeling on the Cys49 residue in STIM1 in a concentration-dependent manner |
| activity-null mutant ERO1α-Cys94Ser (protein) EEQPPETAAQRCFCQVSGYLDDCTCDVETIDRFNNYRLFPRLQKLLESDYFRYYKVNLKRPCPFWNDISQSGRRDCAVKPCQSDEVPDGIKSASYKYSEEANNLIEECEQAERLGAVDESLSEETQKAVLQWTKHDDSSDNFCEADDIQSPEAEYVDLLLNPERYTGYKGPDAWKIWNVIYEENCFKPQTIKRPLNPLASGQGTSEENTFYSWLEGLCVEKRAFYRLISGLHASINVHLSARYLLQETWLEKKWGHNITEFQQRFDGILTEGEGPRRLKNLYFLYLIELRALSKVLPFFERPDFQLFTGNKIQDEENKMLLLEILHEIKSFPLHFDENSFFAGDKKEAHKLKEDFRLHFRNISRIMDCVGCFKCRLWGKLQTQGLGTALKILFSEKLIANMPESGPSYEFHLTRQEIVSLFNAFGRISTSVKELENFRNLLQNIH | wtERO1α, but not mERO1α, decreased N-ethylmaleimide labeling on the Cys49 residue in STIM1 |
